# Results taken from publication PMC2679207, “GLS-1, a Novel P Granule Component, Modulates a Network of Conserved RNA Regulators to Influence Germ Cell Fate Decisions” (PLoS Genetics, 2009).
# B1: MBP-FBF-1 with C-terminal His tag, from insect cells (natural protein, C. elegans, UniProt Q9N5M6 1-614, looked up)
# chain: MDQSKMRYTNQFRKTPQKPTSTEVGNHHTPAHSPMAQHETSMWNFNSLNPYFSMLNMNDGMNYARHQQNHIVTSRPPTPLTDLMSLRSFQSFPNVFMPVSRSRTSSFIQSDTDSSRLEPDDFSQNVRYCSTEIDRNNSSSKNDHLKYSRPALSRNSRSFTRSNNVLPTWSLDSNGEMRSRLSLSEVLDSGDLMKFAVDKTGCQFLEKAVKGSLTSYQKFQLFEQVIGRKDDFLKLSTNIFGNYFVQEIIGMSLTTYDDDNIKRQEKLKNFISSQMTDMCLDKFACRVIQSSLQNMDLSLACKLVQALPRDARLIAICVDQNANHVIQKVVAVIPLKNWEFIVDFVATPEHLRQICFDKYGCRVVQTIIEKLTADSINVDLTSAAQHLRERALQRLMTSVTNRCQELATNEYANYIIQHIVSNDDLAVYRECIIEKCLMRNLLSLSQEKFASHVVEKAFLHAPMELLAEMMDEIFDGYMPHPGTGKDALDIMMFHQFGNYVVQCMLTICCDAVSGRRQTKEGSYDHANSFQVWLKKLHSRVTKERHRLSRFSSGKKMIETLAHLRSTHPIYGLQSSGHESFKTDCFSTASEHDGLELEKNGIEEGNLRLMRTFSP
# notes: FBF-1, PUF protein, C. elegans; also called MBP-FBF-1^6His; source: insect cells, purified on amylose beads; not shown: His6, C-terminal, kept
# Molecular target: T1, GLD-3L with C-terminal His tag, MBP cleaved off (C. elegans, UniProt Q95ZK7-1 1-969)
# T1 construct: GLD-3, C. elegans, isoform GLD-3L; also called GLD-3L^6His; source: insect cells, purified on amylose beads, MBP cleaved off by PreScission protease; not shown: MBP, N-terminal, cleaved; His6, C-terminal, kept
# T1 sequence (looked up): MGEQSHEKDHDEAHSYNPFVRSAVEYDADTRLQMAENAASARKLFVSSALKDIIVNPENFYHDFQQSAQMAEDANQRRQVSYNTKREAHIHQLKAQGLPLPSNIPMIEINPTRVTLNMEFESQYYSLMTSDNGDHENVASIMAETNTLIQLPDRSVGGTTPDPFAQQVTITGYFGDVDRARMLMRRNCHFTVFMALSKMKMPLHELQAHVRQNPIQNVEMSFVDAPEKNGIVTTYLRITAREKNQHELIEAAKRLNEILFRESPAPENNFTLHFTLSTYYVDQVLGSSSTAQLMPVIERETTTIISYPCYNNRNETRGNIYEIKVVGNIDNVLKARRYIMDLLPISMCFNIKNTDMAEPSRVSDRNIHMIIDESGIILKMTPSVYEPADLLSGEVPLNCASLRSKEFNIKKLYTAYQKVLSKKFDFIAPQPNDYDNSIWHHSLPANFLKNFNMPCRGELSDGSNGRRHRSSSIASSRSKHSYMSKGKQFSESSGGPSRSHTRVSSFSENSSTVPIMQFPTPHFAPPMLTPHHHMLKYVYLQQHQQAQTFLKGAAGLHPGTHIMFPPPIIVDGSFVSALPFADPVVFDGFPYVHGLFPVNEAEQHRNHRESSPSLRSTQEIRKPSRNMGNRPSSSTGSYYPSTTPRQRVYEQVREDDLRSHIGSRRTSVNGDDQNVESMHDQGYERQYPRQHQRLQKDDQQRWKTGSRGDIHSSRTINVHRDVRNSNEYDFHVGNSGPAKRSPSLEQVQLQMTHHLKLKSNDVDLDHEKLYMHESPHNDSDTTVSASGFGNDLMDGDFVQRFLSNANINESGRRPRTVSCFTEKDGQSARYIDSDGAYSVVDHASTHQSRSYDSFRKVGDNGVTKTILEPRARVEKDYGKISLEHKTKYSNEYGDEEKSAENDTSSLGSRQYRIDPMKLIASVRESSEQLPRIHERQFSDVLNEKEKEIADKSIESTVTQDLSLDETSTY
# Assay: pull-down; competition assay; MBP-FBF-1 immobilized on amylose beads, loaded with GLD-3L, then challenged with increasing amounts of free GLS-1; washed; GLD-3L on beads quantified from Western blot bands
# Details: both partners purified
binder,measurement,value
B1,binding result,binds
